The values that follow come from US20210261641A1 (Novo Nordisk, published 2021).

The target of assay [1] is T1, human GLP-1 receptor (human, UniProt P43220 24-463). In words: cell-based or functional assay.
Assay [2] concerns the target T1, human GLP-1 receptor. In words: displacement of [125I]-GLP-1(7-36)NH2 from BHK membranes with human GLP-1R, SPA, low HSA. Here is the method: 1. For the receptor binding assay in the presence of low HSA (0.001%) 50 μl of the assay buffer was added to each well of an assay plate. Assay continued with step 3. 2. For the receptor binding assay in the presence of high HSA (2.0%) 50 μl of the 8% albumin stock was added to each well of an assay plate. Assay continued with step 3. 3. Test compounds were serially diluted to give the following concentrations: 8×10⁻⁷ M, 8×10⁻⁸ M, 8×10⁻⁹ M, 8×10⁻¹° M, 8×10⁻¹¹ M, 8×10⁻¹² M and 8×10⁻¹³ M. Twenty-five μl were added to appropriate wells in the assay plate. 4. Cell membrane aliquots were thawed and diluted to their working concentration. Fifty μl were added to each well in the assay plate. 5. WGA SPA beads were suspended in assay buffer at 20 mg/ml. The suspension was diluted to 10 mg/ml in assay buffer just prior to addition to the assay plate. Fifty μl were added to each well in the assay plate. 6. The incubation was started by adding 25 μl of 480 pM solution of [¹²⁵I]-GLP-1]-(7-36) NH₂ to each well of the assay plate. A 25 μl aliquot was reserved for measuring total counts/well. 7. The assay plate was incubated for 2 h at 30° C. 8. The assay plate was centrifuged for 10 min. 9. The assay plate was read in a Packard TopCount NXT instrument.
The data from the TopCount instrument were transferred to GraphPad Prism software. The software averaged the values for the replicates and performed a non-linear regression. IC₅₀ values were calculated by the software and reported in nM.
For orientation: Loss of bound radioactivity is the signal in a displacement assay; it reports binding, not function.

In assay [3] the target is T2, mouse transferrin receptor (mouse, UniProt Q62351 1-763).
T2 construct: whole, on cells; also called TfR
In words: inhibition of uptake of 5 nM Cy5-labelled anti TfR-Fab into MEF-1 cells (mouse TfR), high-content imaging. Here is the method: The day before each assay the cells were plated out at 5000 cells/well. 2. On the assay day the cells were washed with HBSS containing 0.1% (w/v) HSA. 3. Test compounds were serially diluted to give the following concentrations: 2×10⁻⁶ M, 2×10⁻⁷ M, 2×10⁻⁸ M, 2×10⁻⁹ M, 2×10⁻¹° M, 2×10⁻¹¹ M, 2×10⁻¹² M and 2×10⁻¹³ M. 100 μl of each was added to appropriate wells in the assay plate. 4. To each of the wells the fluorescently-labelled Fab fragment was added to a final concentration of 5 nM. 5. The plates were incubated at 37° C. for 15 min. After incubation the buffer was removed and the cells were washed with HBSS containing 0.1% (w/v) HSA. 6. Fifty μl of cold 4% PFA was added in a fume hood. […] The assay plate was read in a high-content imaging instrument (IN Cell 2200 instrument, GE).
The data from the IN Cell instrument was analysed using the software that was supplied with the instrument. […] The amount of fluorescence that was internalised was calculated by defining granules visible in the Cy5 channel of the instrument and corresponded to internalised Cy5-labelled Fab fragment. The number and intensity of granules in each cell were calculated. The readout from the instrument that was used for further calculations was the total area of the granules divided by the number of cells in each acquisition field. […] IC50 values were calculated by the software and reported in nM.

T2 sequence (Q62351 whole entry): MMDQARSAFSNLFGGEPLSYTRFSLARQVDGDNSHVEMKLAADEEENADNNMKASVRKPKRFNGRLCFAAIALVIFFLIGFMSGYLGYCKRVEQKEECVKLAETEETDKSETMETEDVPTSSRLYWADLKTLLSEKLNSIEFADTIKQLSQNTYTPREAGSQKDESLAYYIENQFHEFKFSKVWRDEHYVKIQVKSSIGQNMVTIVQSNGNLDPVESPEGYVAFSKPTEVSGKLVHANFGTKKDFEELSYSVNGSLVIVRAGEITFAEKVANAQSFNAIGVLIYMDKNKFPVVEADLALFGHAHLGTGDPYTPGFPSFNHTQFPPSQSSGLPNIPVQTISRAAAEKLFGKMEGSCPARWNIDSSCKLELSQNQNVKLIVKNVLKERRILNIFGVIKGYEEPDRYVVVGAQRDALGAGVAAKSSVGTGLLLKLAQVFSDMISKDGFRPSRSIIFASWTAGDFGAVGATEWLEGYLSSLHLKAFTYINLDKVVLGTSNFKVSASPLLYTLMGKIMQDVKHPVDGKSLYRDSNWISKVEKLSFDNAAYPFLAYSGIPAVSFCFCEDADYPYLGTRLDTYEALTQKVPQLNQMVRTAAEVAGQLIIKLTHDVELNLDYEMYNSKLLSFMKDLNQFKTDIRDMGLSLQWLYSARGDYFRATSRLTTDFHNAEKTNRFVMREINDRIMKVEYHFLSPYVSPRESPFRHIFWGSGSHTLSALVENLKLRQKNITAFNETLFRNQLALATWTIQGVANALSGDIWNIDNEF

B1: GLP-1 anti TNP-Fab fusion protein (compound of Example 5 / FIG. 5, SEQ ID NO: 8) (other)
light: HGEGTFTSDVSSYLEEQAAREFIAWLVKGRPGGGSGGGSGGGSGGGSDIVMTQTPLSLSVTPGQPASISCRSSQSLLHSNGNTYLHWYLQKPGQSPQLLIYKVSNRFSGVPDRFSGSGSGTDFTLKISRVEAEDVGVYYCSQSTHVPWTFGQGTKVEIKRTVAAPSVFIFPPSDEQLKSGTASVVCLLNNFYPREAKVQWKVDNALQSGNSQESVTEQDSKDSTYSLSSTLTLSKADYEKHKVYACEVTHQGLSSPVTKSFNRGEC
heavy: QVQLQESGPGLVKPSETLSLTCTVSGGSISSGYWNWIRQPPGKGLEWIGTISYSGDTYYNPSLKSRVTISVDTSKNQFSLKLSSVTAADTAVYYCARYGSYVFDYWGQGTTVTVSSASTKGPSVFPLAPCSRSTSESTAALGCLVKDYFPEPVTVSWNSGALTSGVHTFPAVLQSSGLYSLSSVVTVPSSSLGTKTYTCNVDHKPSNTKVDKRVESKHHHHHHHHHH
modifications: N-terminal residue found as pyroglutamic acid in the purified protein
notes: Two-chain Fab fusion; also called GLP-1-(GGGS)4-aTNP light chain + aTNP-(His)10 heavy chain
The term IC50 denotes the concentration that gives 50% inhibition. For the molecule B1, the “EC50/pM (0% HSA), in vitro potency, CRE luciferase reporter gene assay” value (“EC50/pM (0% HSA), in vitro potency” for short) with human GLP-1 receptor [1] worked out at 267 pM. This molecule returned an IC50 with human GLP-1 receptor [2] of 12.5 nM.

B2: GLP-1 control Fab fusion protein (compound of Example 7 / FIG. 7, SEQ ID NO: 12) (other)
light: B1 light
heavy: EVQLVESGGGLVQPGNSLTLSCVASGFTFSNYGMHWIRQAPKKGLEWIAMIYYDSSKMNYADTVKGRFTISRDNSKNTLYLEMNSLRSEDTAMYYCAVPTSHYVVDVWGQGVSVTVSSAKTTPPSVYPLAPGSAAQTNSMVTLGCLVKGYFPEPVTVTWNSGSLSSGVHTFPAVLQSDLYTLSSSVTVPSSTWPSETVTCNVAHPASSTKVDKKIVPRDCGHHHHHHHHHH
notes: Hybrid of the anti-TNP light chain fusion and the anti-TfR heavy chain; also called hybrid construct
As for B2, the “EC50/pM (0% HSA), in vitro potency” value with human GLP-1 receptor [1] turned out to be 52.4 pM. The same molecule came in with a 50% inhibitory concentration (IC50) with human GLP-1 receptor [2] of 2.39 nM.

B3: Vivotag 750 labelled GLP-1 control Fab fusion protein (compound of Example 9 / FIG. 9) (other)
light: B1 light
heavy: B2 heavy
modifications: VivoTag750 (NHS ester) randomly attached to amines; mixture of 0, 1, 2, 3 labels per molecule (average about 1)
notes: The label positions are not defined; also called fluorescence labelled GLP-1 control Fab fusion protein
In the case of B3, in the assay with human GLP-1 receptor [1], the “EC50/pM (0% HSA), in vitro potency” value turned out to be 58.6 pM. This molecule also had an IC50 with human GLP-1 receptor [2] of 3.89 nM.

B4: GLP-1 control Fab conjugate (compound of Example 14 / FIG. 14) (other)
light: DIVMTQTPLSLSVTPGQPASISCRSSQSLLHSNGNTYLHWYLQKPGQSPQLLIYKVSNRFSGVPDRFSGSGSGTDFTLKISRVEAEDVGVYYCSQSTHVPWTFGQGTKVEIKRTVAAPSVFIFPPSDEQLKSGTASVVCLLNNFYPREAKVQWKVDNALQSGNSQESVTEQDSKDSTYSLSSTLTLSKADYEKHKVYACEVTHQGLSSPVTKSFNRGEC
heavy: EVQLVESGGGLVQPGNSLTLSCVASGFTFSNYGMHWIRQAPKKGLEWIAMIYYDSSKMNYADTVKGRFTISRDNSKNTLYLEMNSLRSEDTAMYYCAVPTSHYVVDVWGQGVSVTVSSASTKGPSVFPLAPCSRSTSESTAALGCLVKDYFPEPVTVSWNSGCLTSGVHTFPAVLQSSGLYSLSSVVTVPSSSLGTKTYTCNVDHKPSNTKVDKRVESK
peptide: HGEGTFTSDVSSYLEEQAAREFIAWLVRGKG
modifications: epsilon amino group of Lys at position 36 (GLP-1(7-37) numbering) carries the linker -Ado-gGlu-Ado-, joined via -CH2-C(O)- to Cys 382 of the Fab; thiol of Cys 382 (numbering of FIG. 14 / SEQ ID NO: 5) linked via Chem. 2 -CH2-C(O)-Ado-gGlu-Ado- to the GLP-1 analogue
For the molecule B4, the “EC50/pM (0% HSA), in vitro potency” value in the assay with human GLP-1 receptor [1] stood at 818 pM. Besides, in the assay with human GLP-1 receptor [2], the IC50 was 55.9 nM.

B5: GLP-1 anti TfR-Fab conjugate (compound of Example 15 / FIG. 15) (other)
light: DIQMTQSPASLSASLEEIVTITCQASQDIGNWLAWYQQKPGKSPQLLIYGATSLADGVPSRFSGSRSGTQFSLKISRVQVEDIGIYYCLQAYNTPWTFGGGTKLELKRTVAAPSVFIFPPSDEQLKSGTASVVCLLNNFYPREAKVQWKVDNALQSGNSQESVTEQDSKDSTYSLSSTLTLSKADYEKHKVYACEVTHQGLSSPVTKSFNRGEC
heavy: B4 heavy
peptide: B4 peptide
modifications: epsilon amino group of Lys at position 36 (GLP-1(7-37) numbering) carries the linker -Ado-gGlu-Ado-, joined via -CH2-C(O)- to Cys 377 of the Fab; thiol of Cys 377 (numbering of FIG. 15 / SEQ ID NO: 3) linked via Chem. 2 -CH2-C(O)-Ado-gGlu-Ado- to the GLP-1 analogue
On to B5, for which the “EC50/pM (0% HSA), in vitro potency” value with human GLP-1 receptor [1] was 435 pM. The figures for the half-maximal inhibitory concentration (IC50) (in assay [3]; in the assay with human GLP-1 receptor [2]) were 17.4 nM and 32.5 nM, respectively.

B6: GLP-1 anti TfR-Fab fusion protein (compound of Example 6 / FIG. 6, SEQ ID NO: 11) (other)
light: HGEGTFTSDVSSYLEEQAAREFIAWLVKGRPGGGSGGGSGGGSGGGSDIQMTQSPASLSASLEEIVTITCQASQDIGNWLAWYQQKPGKSPQLLIYGATSLADGVPSRFSGSRSGTQFSLKISRVQVEDIGIYYCLQAYNTPWTFGGGTKLELKRADAAPTVSIFPPSSEQLTSGGASVVCFLNNFYPKDINVKWKIDGSERQNGVLNSWTDQDSKDSTYSMSSTLTLTKDEYERHNSYTCEATHKTSTSPIVKSFNRNEC
heavy: B2 heavy
notes: Two-chain Fab fusion; also called GLP-1-(GGGS)4-aTfR light chain + aTfR-(His)10 heavy chain
On to B6, for which the “EC50/pM (0% HSA), in vitro potency” value in the assay with human GLP-1 receptor [1] is 48.3 pM. The same molecule yielded an IC50 in the assay with human GLP-1 receptor [2] of 3.28 nM.

B7: Vivotag 750 labelled GLP-1 anti TfR-Fab fusion protein (compound of Example 8 / FIG. 8) (other)
light: B6 light
heavy: B2 heavy
modifications: VivoTag750 (NHS ester) randomly attached to amines; mixture of 0, 1, 2, 3 labels per molecule (average about 1)
notes: The label positions are not defined; also called GLP-1-Active TfR; fluorescence labelled GLP-1 anti TfR-Fab fusion protein
Consider B7, for which, in the assay with human GLP-1 receptor [1], the “EC50/pM (0% HSA), in vitro potency” value stood at 92.8 pM. Also, the concentration for half-maximal inhibition (IC50) with human GLP-1 receptor [2] worked out at 9.61 nM.
